From patent US7176188B2, “Method of lethally sensitizing human and animal cells” (UniversitéLaval, priority 2003, dated 2007)

Experiment: PARG activity of bacterial extracts expressing recombinant protein (TLC release of 32P-ADP-ribose from 32P-poly(ADP-ribose))
Type: biochemical, C. elegans
Conditions: for PARG activity (qualitative): bacterially expressed His-tagged protein, 24 h at 37° C.
Description: Cultures of M15-pREP4 bacteria transformed with pQE-PME-3L, were grown overnight at saturation at 37° C. Fresh cultures (1000 ml) were started with 50-mL overnight cultures and grown at 37° C. at OD600 nm 0.600. Cultures were then induced with 1 mM isopropyl-1-thio-β-d-galactopyranoside (IPTG) at 37° C. for 2.5 h. M15-pREP4 bacteria transformed with vector alone were also treated with 1 mM IPTG at 37° C. for 2.5 h. Cultures were pelleted at 3000×g for 10 min at 4° C., resuspended in 10 ml extraction buffer (50 mM KPO4, pH 7.5, 50 mM Kcl, 10 mM β-mercaptoethanol, 0.1% triton X-100) and passed twice at 16,000 psi in a French Pressure Cell (SLM-AMINCO®, Rochester, N.Y.) maintained at 4° C. Extracts were centrifuged for 10 min at 1000×g at 4° C. and protein concentration of supernatants were determined. Each supernatant (23.7 mg/ml for M15+pQE-30 and 22.2 mg/ml for pQE-PME-3L) were analyzed on SDS-PAGE and assayed for PARG activity.
PARG activity was determined according to Ménard et al (1987, Biochem. Cel Biol. 65: 668–673). Ten μl of worm or bacterial extracts were assayed for 24 h at 37° C. in the presence of ^32P-poly(ADP-ribose) followed by a thin layer chromatography. Radiolabeled ADP-ribose units released from ADP-ribose polymers were quantified directly on the TLC using an Instant Imager Electronic Autoradiography device (Canberra-Packard). One unit of PARG is defined as the amount of enzyme required to liberate 1 nmol of ADP-ribose per min at 37° C. under assay conditions (Menard and Poirier, 1987, Biochem. Cell Biol. 65: 668–673). Radiographic X-OMAT film was exposed to the TLC plate and placed at −80° C. for 24 h.

Molecule | PARG activity (qualitative) | PARG activity compared to His-PME-4 (bacterial extracts, similar rate of bacterial expression)
His-PME-4: His-tagged recombinant C. elegans PARG PME-4 (SEQ ID NO:11) expressed in bacteria from pET23a-PME-4 (protein, His tag; PEPTIDE (1)...(485) PME-4) MDHENLMKYLEEFRSIRFQPDFQKVDAERNVRYCEITDFPISNISFELLETGVSQQWRNCDQNLFNEYLKTYKNGGYSQFEDLLFKIWGYSEEKERFDLPALKSFYRKMSEIVGEDEVLEKLARLVRITKSACEVLPEKIYRLVGDIESATFSHIQCASLIAWMFFSDTPRLSFIIILQKTTCVAVEKLKFLFTYFDKMSIDPPIGAVSFRKMRITHKQYLENWKLRETNLLPDVQVFDKMSIEETALCTQIDFANKRLGGGVLKGGAVQEEIRFMMCPEMMVAILLNDVTQDLEAISIVGAYVFSSYTGYSNTLKWAKITPKHSAQNNNSFRDQFGRLQTETVAIDAVRNAGTPLECLLNQLTTEKLTREVRKAAIGFLSAGDGFSKIPVVSGWWGCGAFRGNKPLKFLIQVIACGISDRPLQFCTFGDTELAKKCEEMMTLFRNNNVRTGQLFLIINSIGPPLNYSEQYVFDAIRAKINSTKA | display PARG activity | 
His-PME-3L: His-tagged recombinant C. elegans PARG PME-3L (SEQ ID NO:9) expressed in bacteria from pQE-PME-3L (protein, His tag; PEPTIDE (1)...(781) PME-3L) MSKKFIELGDPVTQDEKDYEDYVGVGFAHQVPTMKRRKLTEHGNTTESKEDPEEPKSRDVFVSSQSSDESQEDSAENPEIAKEVSENCENLTETLKISNIESLDNVTERSEHTLDNHKSTEPMEEDVNNKSNIDVAINSDEDDELVLEENNKEMRDGEQVQQDLFADDQELIEYPGIMKDTTTQLDITDSEVETAQKMEMIEETEADSTFVGEDSKNQRQSGTTSDEVDADSQINLATKTVRTSSSSFLSTVSTCEAPAKGRARMYQKELEKHVIAFTEGNLTLQPDLNKVDPDRNYRYCTIPNFPASQGKLREDNRYGPKIVLPQRWREFDSRGRRRDSYFYFKRKLDGYLKCYKTTGYFMFVGLLHNMWEFDPDITYKLPALEMYYKEMSELVGREEVLEKFARVARIAKTAEDILPERIYRLVGDVESATLSHKQCAALVARMFFARPDSPFSFCRILSSDKSICVEKLKFLFTYFDKMSMDPPDGAVSFRLTKMDKDTFNEEWKDKKLRSLPEVEFFDEMLIEDTALCTQVDFANEHLGGGVLNHGSVQEEIRFLMCPEMMVGMLLCEKMKQLEAISIVGAYVFSSYTGYGHTLKWAELQPNHSRQNTNEFRDRFGRLRVETIAIDAILFKGSKLDCQTEQLNKANIIREMKKASIGFMSQGPKFTNIPIVTGWWGCGAFNGDKPLKFIIQVIAAGVADRPLHFCSFGEPELAAKCKKIIERMKQKDVTLGMLFSMINNTGLPHKHFEFYVFDRISTYLSSSEDVESSKSSPSVSRA | display PARG activity | ~10 times
